Test results: US20230190901A1 (published 2023)

T1: MAGEC2 peptide on HLA-A*02 (human)
T1 peptide: ALIEVGPDHFCV

T2: MAGEC2 peptide on HLA-A*02 (human)
T2 peptide: FVYGEPREL


Biological target: T1, MAGEC2 peptide on HLA-A*02
Assay: binding, other

Row | Binder | binding result
1 | TCR of SEQ ID NOs 26 and 27 (TCR, V domains shown) Valpha: KQEVTQIPAALSVPEGENLVLNCSFTDSAIYNLQWFRQDPGKGLTSLLLIQSSQREQTSGRLNASLDKSSGRSTLYIAASQPGDSATYLCAVVDSWGKLQFGAGTQVVVTP Vbeta: NAGVTQTPKFQVLKTGQSMTLQCAQDMNHNSMYWYRQDPGMGLRLIHYSVGAGITDQGEVPNGYNVSRSTTEDFPLRLLSAAPSQTSVYFCASSPWGGATEAFFGQGTRLTVV | recognises
2 | TCR of SEQ ID NOs 28 and 29 (TCR, V domains shown) Valpha: KQEVTQIPAALSVPEGENLVLNCSFTDSAIYNLQWFRQDPGKGLTSLLLIQSSQREQTSGRLNASLDKSSGRSTLYIAASQPGDSATYLCAVKGRGTYKYIFGTGTRLKVLA Vbeta: NAGVTQTPKFRVLKTGQSMTLQCAQDMNHNSMYWYRQDPGMGLRLIYYSASEGTTDKGEVPNGYNVSRLNKREFSLRLESAAPSQTSVYFCASSYYGGSGAGYEQYFGPGTRLTVT | recognises
3 | TCR of SEQ ID NOs 30 and 31 (TCR, V domains shown) Valpha: KQEVTQIPAALSVPEGENLVLNCSFTDSAIYNLQWFRQDPGKGLTSLLLIQSSQREQTSGRLNASLDKSSGRSTLYIAASQPGDSATYLCAVNEGSNYKLTFGKGTLLTVNP Vbeta: NAGVTQTPKFRILKIGQSMTLQCTQDMNHNYMYWYRQDPGMGLKLIYYSVGAGITDKGEVPNGYNVSRSTTEDFPLRLELAAPSQTSVYFCASSYSSPHYGYTFGSGTRLTVV | recognises

Biological target: T2, MAGEC2 peptide on HLA-A*02
Assay: binding, other

Row | Binder | binding result
4 | TCR of SEQ ID NOs 32 and 33 (TCR, V domains shown) Valpha: KQEVTQIPAALSVPEGENLVLNCSFTDSAIYNLQWFRQDPGKGLTSLLLIQSSQREQTSGRLNASLDKSSGRSTLYIAASQPGDSATYLCAVREWDARLMFGDGTQLVVKP Vbeta: NAGVTQTPKFQVLKTGQSMTLQCAQDMNHNSMYWYRQDPGMGLRLIYYSASEGTTDKGEVPNGYNVSRLNKREFSLRLESAAPSQTSVYFCASSLLRGWTEAFFGQGTRLTVV | recognises
5 | TCR of SEQ ID NOs 34 and 35 (TCR, V domains shown) Valpha: KQEVTQIPAALSVPEGENLVLNCSFTDSAIYNLQWFRQDPGKGLTSLLLIQSSQREQTSGRLNASLDKSSGRSTLYIAASQPGDSATYLCAVTGNTPLVFGKGTRLSVIA Vbeta: NAGVTQTPKFQVLKTGQSMTLQCAQDMNHEYMSWYRQDPGMGLRLIHYSVGAGITDQGEVPNGYNVSRSTTEDFPLRLLSAAPSQTSVYFCASSYSPYYEQYFGPGTRLTVT | recognises
6 | TCR of SEQ ID NOs 36 and 37 (TCR, V domains shown) Valpha: KQEVTQIPAALSVPEGENLVLNCSFTDSAIYNLQWFRQDPGKGLTSLLLIQSSQREQTSGRLNASLDKSSGRSTLYIAASQPGDSATYLCAVTGGTSYGKLTFGQGTILTVHP Vbeta: NAGVTQTPKFRILKIGQSMTLQCTQDMNHNYMYWYRQDPGMGLKLIYYSVGAGITDKGEVPNGYNVSRSTTEDFPLRLELAAPSQTSVYFCASSYWAGVLTEAFFGQGTRLTVV | recognises
